These results are taken from patent US20240101675A1 (BIOLOJIC DESIGN, published 2024).

To fix the notation:
T1: recombinant human OX40 tagged with histidine tag (hOX40-His) (human, UniProt P43489 29-216)
T1 construct: bought (Reprokine); also called hOX-His; not shown: histidine tag
T1 sequence (looked up): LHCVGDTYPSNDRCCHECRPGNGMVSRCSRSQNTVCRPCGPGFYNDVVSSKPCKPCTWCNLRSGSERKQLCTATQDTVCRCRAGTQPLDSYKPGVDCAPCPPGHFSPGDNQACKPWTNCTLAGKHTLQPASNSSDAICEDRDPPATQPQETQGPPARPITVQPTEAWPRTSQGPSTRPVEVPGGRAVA

B1: C37 (scFv, V domains shown)
VH: QMQLVESGGGVVQPGRSLRLSCAASGFTFRTYGMHWVRQAPGKGLEWVAVIWYDGSNKHYADSVKGRFTITRDNSKNTLNLQMNSLRAEDTAVYYCARAPQWELVAEAFDMWGQGTMVTVSS
VL: SYVLTQPPSVSVAPGQTARITCGGNLIGSKLVHWYQQKPGQAPVLVVYDDSDRPSRIPERFSGSNSGNTATLTISRVEAGDEADYYCQVWDSSSDHVVFGGGTKLTVL
notes: also called C37-VH-L-VL
B2: C45 (scFv, V domains shown)
VH: B1 VH with V105T, A106S, M111L
VL: B1 VL with R56E, H96G
notes: also called C45-VH-L-VL
B3: C15 (scFv, V domains shown)
VH: B1 VH with M111L
VL: B1 VL with S51G, R56W, S93G, H96G
notes: also called C15-VH-L-VL
B4: C40 (yeast-displayed scFv clone) (scFv, V domains shown)
VH: B1 VH with A99S, L104W, A106H, M111L
VL: B1 VL with L26N, S92T, H96G
notes: also called C40-VH-L-VL; not shown: linker
B5: C13 (scFv, V domains shown)
VH: B1 VH with M111L
VL: B1 VL with I27L, S51G, R56L, S92T
notes: also called C13-VH-L-VL
B6: C26 (scFv, V domains shown)
VH: B1 VH with V105T, M111L
VL: B1 VL with L26I, S51G, R56G, S92T
notes: also called C26-VH-L-VL
B7: C39 (scFv, V domains shown)
VH: B1 VH with V105T, M111L
VL: B1 VL with I27L, R56W, S92T
notes: also called C39-VH-L-VL
B8: C43 (scFv, V domains shown)
VH: B1 VH with E103Q, M111I
VL: B1 VL with R56A, S92T, H96G
notes: also called C43-VH-L-VL
B9: C17 (scFv, V domains shown)
VH: B1 VH with V105T, A106S, M111L
VL: B1 VL with R56A, S92T
notes: also called C17-VH-L-VL
B10: 3212ACOXC14 (OX40 library) (scFv, V domains shown)
VH: QVQLVESGGGVVQPGRSLRLDCKASGIEFSNSGMHWVRQAPGKGLEWVAVIWYDGSKRYYADSVKGRFTISRDNSKNTLFLQMNSLRAEDTAVYYCATNDDYWGQGTLVTVSS
VL: EIVLTQSPATLSLSPGERATLSCRASQSVEHYLAWYQQKPGQAPRLLIYDASNRATGIPARFSGSGSGTDFTLTISSLEPEDFAVYYCQQYSNWPLTFGQGTKVEIK
notes: not shown: linker
B11: 3212ACOXC21 (OX40 library) (scFv, V domains shown)
VH: B10 VH with T98S
VL: B10 VL with E30D, R54F
notes: not shown: linker
B12: OX-Clone71 (OX40 library) (scFv, V domains shown)
VH: B10 VH with E28D, T98S
VL: B10 VL with R54P
notes: not shown: linker
B13: OX-Clone36 (OX40 library) (scFv, V domains shown)
VH: B10 VH with E28D, T98S
VL: B10 VL with E30I, S92D
notes: not shown: linker
B14: 3212ACOXC10 (OX40 library) (scFv, V domains shown)
VH: B10 VH with E28D, Y59L, T98S
VL: B10 VL with E30I, S92D
notes: not shown: linker
B15: 3212ACOXC31 (OX40 library) (scFv, V domains shown)
VH: B10 VH with E28T, R58A
VL: B10 VL with E30Y, S52E, S92N, N93D
notes: not shown: linker
B16: 1B_seq96_13753_B01_4279975 (OX40 Library) (scFv, V domains shown)
VH: B10 VH with E28T
VL: B10 VL with E30I
notes: not shown: linker
B17: 3212ACOXC23 (OX40 library) (scFv, V domains shown)
VH: B10 VH with E28D, V48L, T98S
VL: B10 VL with E30I, S92E
notes: not shown: linker
B18: 3212ACOXC61 (OX40 library) (scFv, V domains shown)
VH: B10 VH with E28A, R58T
VL: B10 VL with E30I, S92T
notes: not shown: linker
B19: C6 (yeast-displayed scFv clone) (scFv, V domains shown)
VH: B1 VH with E103M, M111L
VL: B1 VL
notes: also called Clone C6; C6-VH-L-VL; not shown: linker
B20: C9 (yeast-displayed scFv clone) (scFv, V domains shown)
VH: B1 VH with A99S, L104W, A106H, M111L
VL: B1 VL with S51G, R56W, H96G
notes: also called Clone C9; C9-VH-L-VL; not shown: linker
B21: C2 (yeast-displayed scFv clone) (scFv, V domains shown)
VH: B1 VH with V105T, M111I
VL: B1 VL with R56L, H96G
notes: also called Clone C2; C2-VH-L-VL; not shown: linker
B22: BDG33.004 (antibody, human IgG1, V domains shown)
VH: B1 VH with E103M, M111L
VL: B1 VL
notes: human IgG1; also called BGD33.004; Clone C6 as IgG1
B23: BDG33.003 (antibody, human IgG1, V domains shown)
VH: B1 VH with V105T, M111I
VL: B1 VL with R56L, H96G
notes: also called BGD33.003; Clone C2 as IgG1

One may read the Kd as the concentration at which binding is half-saturated. The term koff denotes the first-order rate constant of dissociation. A lower koff goes with a long-lived complex. Usually kon stands for a measure of how fast the partners come together. A lower kon goes with slower complex formation.

Where a chain is given by its changes, count along the chain named. Bounds are passed on as bounds.

T3 sequence (Q15116 25-167 limits assumed): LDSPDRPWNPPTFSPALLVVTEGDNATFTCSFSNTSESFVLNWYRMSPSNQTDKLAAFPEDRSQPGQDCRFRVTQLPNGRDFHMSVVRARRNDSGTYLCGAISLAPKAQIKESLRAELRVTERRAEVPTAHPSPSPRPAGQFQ

For the first assay, the target named is T2, recombinant human TSLP (hTSLP)-Fc (human, UniProt Q969D9 29-159, limits assumed).
T2 construct: used for yeast surface display labelling; also called rhTSLP; not shown: Fc
As to the kind of experiment: yeast surface display flow cytometry, 10 nM hTSLP-Fc; MFI normalized to expression and to the positive control. In general terms: A flow cytometer gives signals particle by particle.
Turning to B1, the binding result is on record as “binds”. Same read-out and setting: then B2, with “binds”; and B3, with “binds”. Same read-out and setting: then B4, with “binds”; and B5, with “binds”; and B6, with “binds”. The same measure, in the same setting: then B7, with “binds”; and B8, with “binds”.

Consider B9, for which the binding result is “binds”.

The target in another assay is T1, recombinant human OX40 tagged with …. Nature of the assay: yeast surface display scFv, flow cytometry, 90 nM hOX40-His.
In the case of B10, the binding result is listed as “binds”. For the molecule B11, the binding result is “binds”. On the same count and under the same terms, then B12, with “binds”; and B13, with “binds”. Regarding B14, the binding result was “binds”.

As for B15, the binding result was “binds”.

The next assay addresses T3, recombinant human PD-1 tagged with histidine tag (hPD-1-His) (human, UniProt Q15116 25-167, limits assumed).
T3 construct: bought (Reprokine); not shown: histidine tag
Nature of the assay: yeast surface display flow cytometry: scFv on yeast, 30 nM hPD-1-His, anti-His-APC; median RFU.
In the case of B16, the binding result is recorded as “binds”. On to B17, for which the binding result is “binds”. Same read-out and setting: then B18, with “binds”.

The target in the next assay is T4, recombinant human IL-13 (rh-IL-13)-Fc (human, UniProt P35225 35-146, limits assumed).
T4 construct: used for yeast surface display labelling; not shown: Fc (detected with anti human Fc)
T4 sequence (P35225 35-146 limits assumed): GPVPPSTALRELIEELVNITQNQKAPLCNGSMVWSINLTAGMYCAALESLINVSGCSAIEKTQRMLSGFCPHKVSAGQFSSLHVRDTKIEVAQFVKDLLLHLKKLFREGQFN
As to the kind of experiment: yeast surface display scFv, flow cytometry, 10 nM rh-IL-13.
For the molecule B19, the “relative affinity (normalized MFI against the positive control)” value is > 20 % of positive control. Regarding B4, the “relative affinity (normalized MFI against the positive control)” value is > 20 % of positive control.

B20: the “relative affinity (normalized MFI against the positive control)” value was > 20 % of positive control. As for B21, the “relative affinity (normalized MFI against the positive control)” value was > 20 % of positive control.

Another assay has as its target T1, recombinant human OX40 tagged with …. As to the kind of experiment: yeast surface display flow cytometry: scFv on yeast, 90 nM hOX40-His, anti-His-APC; median RFU.
For B16, the binding result is “binds”.

For B17, the binding result is given as “binds”. On to B18, for which the binding result is given as “binds”.

The next assay deals with T4, recombinant human IL-13 (rh-IL-13)-Fc. Nature of the assay: yeast surface display flow cytometry, 10 nM rh-IL-13-Fc; MFI normalized to expression and to the positive control.
Experimental: Isolated clones from the final sort were sequenced by extraction of plasmid DNA from the yeast clones using a Zymoprep kit (Zymo Research, USA) and the DNA was sequenced. […] Cells were washed and resuspended in ice-cold PBS 0.1% BSA buffer containing a fluorescent labeled secondary antibody as described above for 20 min and analyzed using a flow cytometer.
B1: the binding result was “binds”. Regarding B6, the binding result was “binds”. Same read-out and setting: then B7, with “binds”; and B8, with “binds”.

The target of another assay is T5, human TSLP (human, UniProt Q969D9 29-159).
T5 construct: also called hTSLP; h-TSLP
As to the kind of experiment: SPR (ProteOn XPR36), IgG captured, hTSLP as analyte 3.2 to 0.2 nM.
Regarding B22, the affinity, expressed as Kd, was 3.33 nM; the koff was found to be 0.00114 s⁻¹; the kon was 344000 M⁻¹ s⁻¹. On the same counts, the results for B23 are 4.5 nM, 0.00129 s⁻¹ and 287000 M⁻¹ s⁻¹.

For another assay, the target named is T6, recombinant human IL-13 (human, UniProt P35225 35-146).
T6 construct: also called rh-IL-13; rhIL-13
T6 sequence (P35225 35-146 limits assumed): as above
Nature of the assay: SPR, IgG captured, hIL-13 as analyte, steady state. (SPR reads the build-up and loss of mass on a sensor chip optically.)
Experimental: Subsequent to a cycle, the analyte and tested antibody were stripped from the chip and new tested Ab was loaded on the chip as described above. KD was determined at a steady state condition.
As for B22, the Kd was 57.4 nM. The same measure, in the same setting: then B23, with 21.6 nM.
